According to patent publication US20080181886A1 (published 2008):
Ends that are not written are not given here.

T1: TRX-APRIL (mouse, UniProt Q9D777 104-241)
T1 chain: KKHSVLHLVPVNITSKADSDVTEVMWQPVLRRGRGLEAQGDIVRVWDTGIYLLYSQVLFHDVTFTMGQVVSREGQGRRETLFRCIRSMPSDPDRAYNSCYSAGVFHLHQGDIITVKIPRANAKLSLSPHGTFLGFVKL

B1: TACI_d1d2 (residues 21-116 of the TACI extracellular domain, C-terminal His-tag) (receptor)
chain: FPQGLWTGVAMRSCPEEQYWDPLLGTCMSCKTICNHQSQRTCAAFCRSLSCRKEQGKFYDHLLRDCISCASICGQHPKQCAYFCENKLRSPVNLPP
B2: TACI_d1 (first CRD of TACI, residues 32-67) (receptor)
chain: RSCPEEQYWDPLLGTCMSCKTICNHQSQRTCAAFCR
modifications: disulfide (positions not given here); also: more than one disulfide-bonded isomer, pairings not given here

How the values were obtained:
[1] = molecular target: T2, human BAFF (UniProt Q9Y275 82-285); experiment: competitive SPR
[2] = molecular target: T1, TRX-APRIL; experiment: competitive SPR (BCMA-Fc)
[3] = molecular target: T1, TRX-APRIL; experiment: competitive SPR
[4] = molecular target: T2, human BAFF; experiment: competitive SPR; remark: listed apart in the source
[5] = molecular target: T2, human BAFF; experiment: competitive SPR; interaction observed, curve not fitted adequately

T2 sequence (Q9Y275 82-285): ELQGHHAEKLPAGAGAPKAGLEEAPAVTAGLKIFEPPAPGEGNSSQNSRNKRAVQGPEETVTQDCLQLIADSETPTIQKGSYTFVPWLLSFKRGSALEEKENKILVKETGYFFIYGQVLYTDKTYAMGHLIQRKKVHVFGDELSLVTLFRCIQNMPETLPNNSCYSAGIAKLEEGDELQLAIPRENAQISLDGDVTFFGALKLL

| Binder | IC50 [1] [nM] | IC50 [2] [nM] | IC50 [3] [nM] | IC50 [4] [nM] | IC50 [5] [nM] |
| --- | --- | --- | --- | --- | --- |
| B1 | 1.3 | 11 |  |  |  |
| GSPWSLSCRKEQGKFYDHLLRDCISCASICGQHPKQCAYFCENKLR (receptor) [TACI_d2 (second cysteine-rich domain, CRD2, residues 68-109 of human TACI)] | 1.8 |  | 3.2 | 4 |  |
| B2 |  | 2000 |  |  | > 100 |
